The assay addresses T1, Strep-PhoR, sensor kinase PhoR from E. coli, purified (E. coli, UniProt P08400 1-431).
T1 construct: sensor kinase PhoR of Escherichia coli; one of 'both Strep-PhoR proteins' of the methods; also called E. coli PhoR; source: E. coli BL21, purified (membranes solubilised with Triton X-100, Strep-Tactin)
T1 sequence (looked up): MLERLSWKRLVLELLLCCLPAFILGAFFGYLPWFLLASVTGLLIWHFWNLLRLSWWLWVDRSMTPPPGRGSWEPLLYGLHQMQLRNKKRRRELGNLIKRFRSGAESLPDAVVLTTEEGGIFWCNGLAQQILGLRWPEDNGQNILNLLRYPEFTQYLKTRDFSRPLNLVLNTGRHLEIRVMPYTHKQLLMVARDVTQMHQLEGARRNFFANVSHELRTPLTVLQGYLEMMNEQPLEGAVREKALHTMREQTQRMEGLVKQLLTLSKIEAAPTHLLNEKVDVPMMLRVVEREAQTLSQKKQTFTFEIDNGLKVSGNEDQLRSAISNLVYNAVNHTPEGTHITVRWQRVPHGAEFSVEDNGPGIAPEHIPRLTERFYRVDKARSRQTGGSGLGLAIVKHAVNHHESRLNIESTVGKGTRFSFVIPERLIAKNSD
The assay can be described thus: far-Western, overlay or dot blot; Far-Western dot blot: Strep-tagged bait proteins spotted on a nitrocellulose membrane, incubated with His-SUMO-tagged DUF1127 protein, detected with anti-His antibody; EveryBlot blocking buffer, PBST washes (for E. coli PhoR and YjiS, Fig. 8B, it is not told who was spotted). The following applies: both partners purified.

B1: YjiS from E. coli, purified (natural protein, UniProt P39390 1-54, looked up)
chain: MEFHENRAKAPFIGLVQLWQAVRRWRRQMQTRRVLQQMSDERLKDIGLRREDVE
notes: YjiS, the sole DUF1127 protein of Escherichia coli, a 54-amino acid protein; also called E. coli YjiS
Consider B1, for which the binding result is on record as “binds”.

The values above are taken from publication PMC12501420, “Small DUF1127 proteins regulate bacterial phosphate metabolism through protein–protein interactions with the sensor kinase PhoR” (microLife, 2025).
